We go through two molecules from patent US12674167B2, “Aptamer specifically binding to cancer stem cells, and use thereof” (HiCELL Tech, priority 2019, dated 2026).

[NapdU] = 5-(N-naphthylcarboxyamide)-2'-deoxyuridine

In data set [1] the test system is ovarian cancer stem cell line A2780-SP cells. The data set can be described thus: Affinity of CD166 aptamer to ovarian cancer stem cells by flow cytometry (FACS). The data set is classed as binding. Particulars: for affinity: as found in Example 8 (FACS). As for the experimental part: It was confirmed whether the CD166 aptamer constructed in Example 7 recognized ovarian cancer cells and ovarian cancer stem cells. The following experiment was performed to analyze the interaction between the CD166 aptamer and the ovarian cancer cell line A2780 cells. First, each of the CD166 aptamer (AT-1, AT-2, AT-3, AT-4, AT-5 and AT-6) was dissolved in sterile tertiary water and then heated at 95° C. for 5 minutes. After heating, it was cooled to 25° C. The aptamer was added to the ovarian cancer cell line A2780 cells at a concentration of 500 nM, and then the cells were cultured at room temperature and stained. Thereafter, the cells reacted with the CD166 aptamer were analyzed using a flow cytometer (fluorescence activated cell sorter, FACS), and the results are shown in FIG. 18.
In addition, in the same manner as described above, the ovarian cancer stem cell line A2780-SP cells were reacted with the CD166 aptamer, and then FACS was performed, and the results are shown in FIG. 19.
The affinity of the CD166 aptamer AT-5 and the CD166 FACS antibody (PE Mouse Anti-Human CD166, Cat:559263, BD Pharminggen) as the control to the ovarian cancer stem cell line A2780-SP cells was compared.
In general terms: Flow cytometry measures light scatter and fluorescence of single cells or particles in a stream.

In data set [2] the test system is CD166 expressing cells isolated from ovarian cancer stem cells. Description: Cell adhesion experiment, CD166 expressing ovarian cancer stem cells. The data set is classed as cell-based. Particulars: aptamer 500 nM, 1 hour, collagen-coated plate, FIG. 21. The method, then: The effect of the CD166 aptamer on cell adhesion ability was confirmed using the CD166 aptamers AT3, AT4 and AT5. Specifically, CD166 expressing cells were isolated from ovarian cancer stem cells using the CD166 FACS antibody. Cell adhesion experiment of the CD166 aptamer was performed using the isolated cells. First, […] blocked with 20 μg/ml of collagen for 1 hour. After blocking, 0.1% bovine serum albumin (BSA) was added and incubated for 1 hour to limit non-specific binding. The isolated cells were each exposed to the CD166 aptamer (500 nM) for 1 hour and then fixed with 4% formaldehyde. The fixed cells were stained with hoest33342.

The subject of data set [3] is CD166-high cells of ovarian cancer stem cell line A2780-SP. The data set can be described thus: Tumor formation from aptamer-treated A2780-SP cells inoculated subcutaneously. The data set is classed as in vivo, nude mice. The method, then: The effect of the CD166 aptamer AT-5 on tumor formation was confirmed. Specifically, cells in which the expression CD166 is high were isolated from the ovarian cancer stem cell line A2780-SP using a flow cytometer (ARIA3). The isolated cells were reacted with the CD166 aptamer AT-5 for 1 hour, respectively. The cells reacted with the aptamer (1×10^5 cells) were inoculated subcutaneously into nude mice. At this time, the aptamer-untreated cells were inoculated on the left side of nude mice, and the CD166 aptamer AT-5-treated cells were inoculated on the right side of nude mice. After inoculation, the tumor formation size was measured from the 18th day. Nude mice were euthanized on the 38th day of inoculation. Tumors were isolated from nude mice, and finally, the weight and size of the tumors were measured. The results of observation of the isolated tumors are shown in FIG. 26, the results of measuring the size of the tumors are shown in FIG. 27, and the results of measuring the weight of the tumors are shown in FIG. 28, respectively.

Data set [4] deals with patient-derived ovarian cancer stem cells. The data set can be described thus: Affinity of CD166 aptamer to patient-derived ovarian cancer stem cells (FACS). Conditions: FIG. 36A. The data set is classed as binding.
In data set [5] the test system is focal adhesion signaling pathway in patient-derived ovarian cancer stem cells. Description: Focal adhesion signaling pathway by Western blotting, patient-derived ovarian cancer stem cells. In kind it is cell-based. Particulars: aptamer 1 hour, FIG. 39. An excerpt: (§1) CD166 expression was inhibited using siRNA in the ovarian cancer stem cell line A2780-SP, and the focal adhesion signaling pathway was confirmed in CD166 expression-inhibited cells through Western blotting. Specifically, in order to inhibit the expression of CD166, the control (si Control) (5′-UUCUCCGAACGUGUCACGUTT-3′ (SEQ ID NO: 23); 5′-ACGUGACACGUUCGGAGAATT-3′ (SEQ ID NO: 24) and si CD166 (5′-AAGCCCGAUGGCUCCCCAGUAUU-3′ (SEQ ID NO: 25); 5′-AAUACUGGGGAGCCAUCGGGCUU-3′ (SEQ ID NO: 26) were constructed. The expression of CD166 was inhibited by reacting the constructed siRNA and the ovarian cancer stem cell line A2780-SP cells, and the cells were cultured after inhibition of expression. After culturing for 48 hours, the cells were collected, and protein expression of FAK, SRC, Paxillin and CD44, which are known as major genes of the focal adhesion signaling pathway, was confirmed through Western blotting. Antibodies against CD166 (ab109215, Abcam), CD44 (5640S, Cell Signaling Technology), p-PAXILLIN (2541S, Cell Signaling Technology), p-SRC (2101S, Cell Signaling Technology), p-FAK (3284S, Cell Signaling Technology), FAK (3285S, Cell Signaling Technology) and GAPDH (MAB374, EMD Milliore Corp, Billerica, MA) were used as primary antibodies. The results of confirming the focal adhesion signaling pathway inhibitory activity in CD166 expression-inhibited cells are shown in FIG. 14.
The patient-derived ovarian cancer stem cells were reacted with the CD166 aptamers AT-3 and AT-5 for 1 hour, respectively, and then the focal adhesion signaling pathway was confirmed in CD166 expression-inhibited cells through Western blotting. The Western blotting was performed in the same manner as in Example 5.

Data set [6] relates to focal adhesion signaling pathway in mesenchymal stem cells. Description: Focal adhesion signaling pathway by Western blotting, mesenchymal stem cells. Particulars: aptamer 1 hour, normal stem cells, FIG. 44. In kind it is cell-based.
Excerpt: as §1
The mesenchymal stem cells were reacted with the CD166 aptamer AT-5 for 1 hour, respectively, and then the focal adhesion signaling pathway was confirmed in CD166 expression-inhibited cells through Western blotting. The Western blotting was performed in the same manner as in Example 5. In addition, the focal adhesion signaling pathway by CD166 expression inhibition in the mesenchymal stem cells was confirmed by the method of Example 4, and the results are shown in FIG. 44.

B1: AT5: 76-mer CD166 aptamer, N = NapdU: TCAGCCGCCAGCCAGTTCANNNGANAAAGCNCCGNNANCGGGCCCCNNGNAGAGNCANGACCAGAGCACCACAGAG (nucleic acid)
DNA: TCAGCCGCCAGCCAGTTCAUUUGAUAAAGCUCCGUUAUCGGGCCCCUUGUAGAGUCAUGACCAGAGCACCACAGAG
modifications: DNA, [NapdU] at 20, 21, 22, 25, 31, 35, 36, 38, 47, 48, 50, 55, 58, backbone not given here
For B1, the “specificity of binding to ovarian cancer stem cells among the CD166 aptamers” value in data set [1] (500 nM, FACS, FIG. 19) was “most specifically binds”. In addition, in data set [1], the affinity entry was “high affinity”. The cell adhesion entry in data set [2] is on record as “reduced”. In data set [3] (cells pre-reacted with aptamer 1 hour, 1×10^5 cells subcutaneous, nude mice, FIG. 26), the tumor formation entry is given as “inhibited”. Moreover, in data set [3] (vs aptamer untreated group, day 18 to 38, FIG. 27), the “size of the tumor” value is on record as “smaller”. In addition, the “weight of the tumor” value in data set [3] (vs control, day 38, FIG. 28) was “reduced significantly”. Besides, in data set [4], the “interaction with patient-derived ovarian cancer stem cells, signal intensity” value was “the signal intensity is high”. In addition, in data set [5], the “expression of p-PAXILLIN” value is recorded as “inhibited”, the “expression of p-SRC” value was “inhibited” and the “expression of the p-FAK Y925 site” value was “reduced”. In data set [6], the “expression of p-PAXILLIN” value is given as “not affected”, the “expression of p-SRC” value was “not affected” and the “expression of the p-FAK Y925 site” value is given as “not affected”.

B2: AT4: 76-mer CD166 aptamer, N = NapdU: TCAGCCGCCAGCCAGTTCCNNCNAGAGNCANGCACGNNANCGGACCNGNCGGCGAANGGACCANANCACCACAGAG (nucleic acid)
DNA: TCAGCCGCCAGCCAGTTCCUUCUAGAGUCAUGCACGUUAUCGGACCUGUCGGCGAAUGGACCAUAUCACCACAGAG
modifications: DNA, [NapdU] at 20, 21, 23, 28, 31, 37, 38, 40, 47, 49, 57, 64, 66, backbone not given here
Take B2: in data set [1], the affinity result was “high affinity”. For the same molecule, the cell adhesion result in data set [2] is reported as “reduced”.
